Results published in patent publication US20050065102, “Medicinal compositions” (published 2005).

Biological target: HMG-I (HMGA1a), partially purified (Homo sapiens, UniProt P17096 P17096:2-107)
Assay: pulldown; affinity column, eluted with 1 M NaCl; identified by peptide sequencing
Conditions: tags: ammonium sulfate and DEAE fractions from hypoxic SK-N-SH
Experimental: The above fraction (III) was dialyzed twice against 5 L of 50 mM Tris-HCl buffer (pH 7.5) at 4° C. for 4 hours. Then, the resulting dialysate was applied to 5′-amino-2′-O-methyl oligo RNA (5′-[…]-3′, SEQ ID NO: 24)-coupled CNBr-activated Sepharose 4B (manufactured by Pharmacia Biotech) affinity column. The above affinity column was washed with 10 ml of the above incubation buffer and then eluted with 15 ml of the incubation buffer containing 1 M NaCl to give a fraction having a binding activity to the RNA probe of No. 5 [fraction (IV), FIG. 7 (IV)] (FIG. 9, lane 4). The result of silver staining of fraction (IV) is shown in lane 4 in FIG. 8, and the result of RNA binding assay thereof is shown in lane 4 in FIG. 9.

HMG-I (HMGA1a), partially purified, sequence (P17096 2-107, one chain of several): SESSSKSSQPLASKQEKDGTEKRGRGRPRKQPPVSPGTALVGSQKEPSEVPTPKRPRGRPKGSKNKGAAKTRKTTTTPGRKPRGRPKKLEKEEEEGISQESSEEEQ

B1: 5'-amino-2'-O-methyl oligo RNA affinity ligand (ssRNA)
RNA: AUCUUCUUGGUGGUGCUCUACAAGUACCGCUGCUACAAGGUGAGGCCCU
modifications: 2'-OMe all, 5'-amino
  binding result: binds
